In US8357523B2, “Beta-glucosidase variant enzymes and related polynucleotides” (Codexis, Inc., priority 2009, dated 2013):
Residue numbers refer to the chain shown, from its start.

B1: 183 (protein)
chain: STAIAQEGAAPAAILHPEKWPRPATQRLIDPAVEKRVDALLKQLSVEEKVGQVIQGDIGTITPEDLRKYPLGSILAGGDSGPNGDDRAPPKEWLDLADAFYRVSLEKRPGHTPIPVLFGIDAVHGHGNIGSATIFPHNIALGATRSPELLRRIGEVTAVEMTATGIDWTFAPALSVVRDDRWGRTYEGFSEDPEIVASYSAAIVEGVQGKYGSKDFMAPGRAVACAKHFLADGGTDQGRDQGDARISEDELIRIHNAGYPPAIDAGVLTVMASFSSWQGIKHHGHKQLLTDVLKGQMGFNGFIVGDWNAHGQVPGCTKFKCPTSLIAGLDMYMAADSWKQLYENTLAQVKDGTIPMAHLDDAVRRILRVKVLAGLFEKPAPKDRPGLPGLETLGSPEHRAVGREAVRKSLVLLKNDKGTLPLSPKARVLVAGDGADNIGKQSGGWTISWQGTGNRNDEFPGATSILGGIRDAVADAGGSVEFDVAGQYKTKPDVAIVVFGEEPYAEFQGDVETLEYQPDQKQDLALLKKLKDQGIPVVAVFLSGRPMWVNPELNASDAFVAAWLPGTEGGGVADVLFTDKAGKVQHDFAGKLSYSWPRTAAQTTVNRGDADYNPLFAYGYGLTYKDKSKVGTLPEESGVPAEARQNAGIYFRAGALRLPGRLL
B2: 172 (protein)
chain: STAIAQEGAAPAAILHPEKWPRPATQRLIDPAVEKRVDALLKQLSVEEKVGQVIQGDIGTITPEDLRKYPLGSILAGGNSGPNGDDRAPPKEWLDLADAFYRVSLEKRPGHTPIPVLFGIDAVHGHGNIGSATIFPHNIALGATRDPELLRRIGEVTAQEMAATGIDWTFAPALSVVRDDRWGRTYEGFSEDPEIVAAYSAAIVEGVQGKYGSKDFMAPGRSVACAKHFLADGGTDQGRDQGDARISEDELIRIHNAGYPPAIDAGVLTVMASFSSWQGIKHHGHKQLLTDVLKGQMGFNGFIVGDWNAHDQVPGCTKFNCPTSLIAGLDMYMAADSWKQLYENTLAQVKDGTIPMARLDDAVRRILRVKVLAGLFEKPAPKDRPGLPGLETLGSPEHRAVGREAVRKSLVLLKNDKGTLPLSPKARVLVAGDGADNIGKQSGGWTISWQGTGNRNDEFPGATSILGGIRDAVADAGGSVEFDVAGQYKTKPDVAIVVFGEEPYAEFQGDVETLEYQPDQKQDLALLKKLKDQEIPVVAVFLSGRPMWVNPELNASDAFVAAWLPGTEGGGVADVLFTDKAGKVQHDFAGKLSYSWPRTAAQTTVNRGDADYNPLFAYGYGLTYKDKSKVGTLPEESGVPAEARQNAGIYFRAGALRLPGRFL
B3: 190 (protein)
chain: B2 chain with Q159V, Y211F, S222I, C225S, F274Q, E534G
B4: 79 (protein)
chain: B2 chain with N128K, Q159V, Y211F, S222I, E534G
B5: 82 (protein)
chain: B2 chain with N128K, D146S, Q159V, Y211F, S222A, E534G
B6: 191 (protein)
chain: B2 chain with Q159V, Y211F, S222I, C225S, F274A, D436N, E534G
B7: 184 (protein)
chain: B2 chain with N79D, N128K, D146S, A201P, P219V, S222I, C225S, I280V, E534G
B8: 80 (protein)
chain: B2 chain with N128K, Q159V, A162T, Y211F, S222I, E534G
B9: 81 (protein)
chain: B2 chain with E18R, P23L, E34K, E47K, P70S, Q159V, Y211F, S222I, E534G
B10: 188 (protein)
chain: B1 chain with N128K, A222I, C225S, G311D, K320N, H358R, L662F
B11: 178 (protein)
chain: B2 chain with Q159V, A198S, S222A, A373T, E534G
B12: 182 (protein)
chain: B2 chain with N79D, I114T, N128K, A173C, A198S, P219V, S222I, C225S, E534G
B13: 189 (protein)
chain: B2 chain with Q159V, Y211F, S222I, C225S, F274K, E534G
B14: 180 (protein)
chain: B2 chain with N79D, N128K, D146S, Q159V, Y211F, S222I, E534G, A655T
B15: 196 (protein)
chain: B2 chain with N79D, A143M, Q159E, A198S, Y211F, S222I, C225S, E534G, G570P, T604P
B16: 174 (protein)
chain: B2 chain with E34D, N79D, N128K, A143M, Q159E, A201P, S222I, C225S, E534G
B17: 179 (protein)
chain: B2 chain with N79D, N128K, Q159V, A173C, A198S, S222I, C225S, E534G
B18: 173 (protein)
chain: B2 chain with I14M, N79D, N128K, Q159V, A162T, A201P, S222I, Q487R, E534G
B19: 194 (protein)
chain: B2 chain with N79D, A143M, Q159E, A198S, Y211F, S222I, C225S, A257P, A485P, E534G
B20: 185 (protein)
chain: B2 chain with A198S, S222A, P381S, E534G
B21: 181 (protein)
chain: B2 chain with N128K, A143M, Q159E, S222I, E534G
B22: 192 (protein)
chain: B2 chain with Q159V, Y211F, S222I, C225S, F274A, E534G
B23: 175 (protein)
chain: B1 chain with T162A, A222I, G311D, K320N, H358R, L662F
B24: 193 (protein)
chain: B2 chain with Q159V, Y211F, S222I, C225S, I326S, E534G
B25: 186 (protein)
chain: B2 chain with N79D, N128K, I134N, Y211F, S222I, E534G

Assay: High throughput cellobiose assay: fold improvement in cellobiase activity of CelA variants over a control enzyme (Tables 2A-2D, 3, 5, 6, 7)
Format: biochemical
Settings: 3.3 g/l cellobiose, 55° C. and pH 6.0

Molecule	Fold improvement over Control Variant No. 5 from Table 2A
B1	++ (++ = 1.1 to 6 fold improvement over control Variant No. 2)
B2	+++ (+++ = 6 to 13 fold improvement over control Variant No. 2)
B3	++ (++ = 1.1 to 6 fold improvement over control Variant No. 2)
B4	++ (++ = 1.1 to 6 fold improvement over control Variant No. 2)
B5	+++ (+++ = 6 to 13 fold improvement over control Variant No. 2)
B6	++ (++ = 1.1 to 6 fold improvement over control Variant No. 2)
B7	+++ (+++ = 6 to 13 fold improvement over control Variant No. 2)
B8	+++ (+++ = 6 to 13 fold improvement over control Variant No. 2)
B9	++ (++ = 1.1 to 6 fold improvement over control Variant No. 2)
B10	++ (++ = 1.1 to 6 fold improvement over control Variant No. 2)
B11	+++ (+++ = 6 to 13 fold improvement over control Variant No. 2)
B12	++ (++ = 1.1 to 6 fold improvement over control Variant No. 2)
B13	++ (++ = 1.1 to 6 fold improvement over control Variant No. 2)
B14	+++ (+++ = 6 to 13 fold improvement over control Variant No. 2)
B15	++ (++ = 1.1 to 6 fold improvement over control Variant No. 2)
B16	++ (++ = 1.1 to 6 fold improvement over control Variant No. 2)
B17	+++ (+++ = 6 to 13 fold improvement over control Variant No. 2)
B18	+++ (+++ = 6 to 13 fold improvement over control Variant No. 2)
B19	++ (++ = 1.1 to 6 fold improvement over control Variant No. 2)
B20	++ (++ = 1.1 to 6 fold improvement over control Variant No. 2)
B21	+++ (+++ = 6 to 13 fold improvement over control Variant No. 2)
B22	++ (++ = 1.1 to 6 fold improvement over control Variant No. 2)
B23	+++ (+++ = 6 to 13 fold improvement over control Variant No. 2)
B24	++ (++ = 1.1 to 6 fold improvement over control Variant No. 2)
B25	+++ (+++ = 6 to 13 fold improvement over control Variant No. 2)
